# T1: AP2-HC D1 (Plasmodium falciparum, UniProt Q8IKR9 1316-1374)
# T1 sequence: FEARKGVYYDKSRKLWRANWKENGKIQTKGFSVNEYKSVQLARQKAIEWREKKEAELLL
# T2: PF3D7_0420300 D1 (Plasmodium falciparum, UniProt Q8I1N6 1956-2015)
# T2 sequence: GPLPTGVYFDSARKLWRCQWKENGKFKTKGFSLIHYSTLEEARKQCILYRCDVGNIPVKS
# Columns and labels:
# [1] = target: T1, AP2-HC D1; assay: gcPBM; about 25 ug protein; PBS, 1% milk, 0.2 mg/ml BSA, salmon testes DNA, 0.03% Triton X-100; conditions: tags: N-terminal GST (pGEX-4T-1), kept; label: surface-attached array probe
# [2] = target: T2, PF3D7_0420300 D1; assay: as above; conditions: tags: N-terminal GST (pGEX-4T-1), kept; label: surface-attached array probe
Binder,binding signal [1],binding signal [2]
CACACA_negctrl_site1685 (dsDNA) DNA 1: ATATATATATAAATATAAATATATATATATATATAT DNA 2: ATATATATATATATATATTTATATTTATATATATAT,"9.5 ln median PBM intensity, better of two orientations",
CACACA_negctrl_site49 (dsDNA) DNA 1: AATATATAAATATATATAAATAAATATATATATAAA DNA 2: TTTATATATATATTTATTTATATATATTTATATATT,"9.5 ln median PBM intensity, better of two orientations","8.92 ln median PBM intensity, better of two orientations"
CACACA_negctrl_site629 (dsDNA) DNA 1: TGCTTATATCTTATAATATTTATACATCATAATAAG DNA 2: CTTATTATGATGTATAAATATTATAAGATATAAGCA,"9.47 ln median PBM intensity, better of two orientations",
CACACA_negctrl_site148 (dsDNA) DNA 1: TTTTTGATGAAATATTATTTTCCTGACTTGGATTAA DNA 2: TTAATCCAAGTCAGGAAAATAATATTTCATCAAAAA,"9.49 ln median PBM intensity, better of two orientations","8.86 ln median PBM intensity, better of two orientations"
CACACA_negctrl_site929 (dsDNA) DNA 1: ACAGATATACATAAAAAAAAAATAATTTTACATATA DNA 2: TATATGTAAAATTATTTTTTTTTTATGTATATCTGT,"9.47 ln median PBM intensity, better of two orientations",
CACACA_negctrl_site1162 (dsDNA) DNA 1: ACACAAAAAAAAAAAAAAAAAAAAAAAAAAAAGGAA DNA 2: TTCCTTTTTTTTTTTTTTTTTTTTTTTTTTTTGTGT,"9.5 ln median PBM intensity, better of two orientations",
CACACA_negctrl_site484 (dsDNA) DNA 1: ATTCATATTAAATATATATATATATATATATATATA DNA 2: TATATATATATATATATATATATATTTAATATGAAT,"9.51 ln median PBM intensity, better of two orientations",
CACACA_negctrl_site1635 (dsDNA) DNA 1: TTTTGATATAAATATTAGATTAATAAATAAAAAAAT DNA 2: ATTTTTTTATTTATTAATCTAATATTTATATCAAAA,"9.46 ln median PBM intensity, better of two orientations",
CACACA_negctrl_site566 (dsDNA) DNA 1: TATTTTTATACAATTTAACACGGGTTATAAAATGTA DNA 2: TACATTTTATAACCCGTGTTAAATTGTATAAAAATA,"9.46 ln median PBM intensity, better of two orientations",
CACACA_negctrl_site1512 (dsDNA) DNA 1: ACGAATTAAATGGATTAATATATATATGTATATTTA DNA 2: TAAATATACATATATATATTAATCCATTTAATTCGT,"9.5 ln median PBM intensity, better of two orientations",
CACACA_negctrl_site474 (dsDNA) DNA 1: TAAAAAAAGGAAAACATACAATTCTATTTTTCAATA DNA 2: TATTGAAAAATAGAATTGTATGTTTTCCTTTTTTTA,"9.49 ln median PBM intensity, better of two orientations",
CACACA_negctrl_site1531 (dsDNA) DNA 1: TATTTCCATTCATAATTTTGTAGAATATATAACCGT DNA 2: ACGGTTATATATTCTACAAAATTATGAATGGAAATA,"9.51 ln median PBM intensity, better of two orientations",
CACACA_negctrl_site809 (dsDNA) DNA 1: AAATAATATTTTTTTTTTTTTTTTTTTTTATGTTAT DNA 2: ATAACATAAAAAAAAAAAAAAAAAAAAATATTATTT,"9.46 ln median PBM intensity, better of two orientations",
CACACA_negctrl_site1028 (dsDNA) DNA 1: ATTTTTTTATGTACACAAAAAAAAAAAAAAATTTAA DNA 2: TTAAATTTTTTTTTTTTTTTGTGTACATAAAAAAAT,"9.48 ln median PBM intensity, better of two orientations",
CACACA_negctrl_site607 (dsDNA) DNA 1: TGTGTCAAGTTTAATAAACGCATATAATATATATGA DNA 2: TCATATATATTATATGCGTTTATTAAACTTGACACA,"9.51 ln median PBM intensity, better of two orientations",
CACACA_negctrl_site1152 (dsDNA) DNA 1: TCATATTTGCCTTTTTATTTAGAACACAAAAAAAAA DNA 2: TTTTTTTTTGTGTTCTAAATAAAAAGGCAAATATGA,"9.29 ln median PBM intensity, better of two orientations","8.77 ln median PBM intensity, better of two orientations"
CACACA_negctrl_site1092 (dsDNA) DNA 1: TCAAAATGTGACATAAAAGAAAAAAAAAAAAAAAAA DNA 2: TTTTTTTTTTTTTTTTTCTTTTATGTCACATTTTGA,"9 ln median PBM intensity, better of two orientations","8.62 ln median PBM intensity, better of two orientations"
CACACA_negctrl_site1232 (dsDNA) DNA 1: AATATTTTTCAATTTCATGTGCATTCATTGAAGTTA DNA 2: TAACTTCAATGAATGCACATGAAATTGAAAAATATT,"9.51 ln median PBM intensity, better of two orientations",
CACACA_negctrl_site272 (dsDNA) DNA 1: TACCTTTCTTATTATTGAAAAGGAATATATAAATAG DNA 2: CTATTTATATATTCCTTTTCAATAATAAGAAAGGTA,"9.13 ln median PBM intensity, better of two orientations","8.89 ln median PBM intensity, better of two orientations"
CACACA_negctrl_site1762 (dsDNA) DNA 1: TTTTTTTCTTCTTTTCTCTTAAAAATATTGAATATT DNA 2: AATATTCAATATTTTTAAGAGAAAAGAAGAAAAAAA,"9.49 ln median PBM intensity, better of two orientations",
CACACA_negctrl_site1235 (dsDNA) DNA 1: TTTAAAAAAAAAAAAAAAAAAAAAAAAAAAAATTTG DNA 2: CAAATTTTTTTTTTTTTTTTTTTTTTTTTTTTTAAA,"9.1 ln median PBM intensity, better of two orientations","8.59 ln median PBM intensity, better of two orientations"

Binder,binding signal [1],binding signal [2]
CACACA_negctrl_site680 (dsDNA) DNA 1: AACACTCAAAAAAATTTAAATAAAAAAAAAAAAAAA DNA 2: TTTTTTTTTTTTTTTATTTAAATTTTTTTGAGTGTT,"9.05 ln median PBM intensity, better of two orientations","8.7 ln median PBM intensity, better of two orientations"
CACACA_negctrl_site842 (dsDNA) DNA 1: ACTAAAAGATATATAATTTCTTTCTTATTTATTTTT DNA 2: AAAAATAAATAAGAAAGAAATTATATATCTTTTAGT,"9.49 ln median PBM intensity, better of two orientations",
CACACA_negctrl_site347 (dsDNA) DNA 1: TTATATATATTTAAAAAAATAACATAAATAAATAAA DNA 2: TTTATTTATTTATGTTATTTTTTTAAATATATATAA,"9.47 ln median PBM intensity, better of two orientations",
CACACA_negctrl_site1022 (dsDNA) DNA 1: ATAAATTGTTCTTTTTGTGTAAACAGAATATTAAAA DNA 2: TTTTAATATTCTGTTTACACAAAAAGAACAATTTAT,"9.48 ln median PBM intensity, better of two orientations",
CACACA_negctrl_site721 (dsDNA) DNA 1: TTTTAAAAAAAATAAAAAATAAACAATAATAAATAA DNA 2: TTATTTATTATTGTTTATTTTTTATTTTTTTTAAAA,"9.49 ln median PBM intensity, better of two orientations",
CACACA_negctrl_site580 (dsDNA) DNA 1: TATTAAAAAAAAAAATAAAAAAATAAAATAAAATAA DNA 2: TTATTTTATTTTATTTTTTTATTTTTTTTTTTAATA,"9.47 ln median PBM intensity, better of two orientations",
CACACA_negctrl_site368 (dsDNA) DNA 1: TTTTTCATTTCTGCATTTATTTATAAATAAATATTT DNA 2: AAATATTTATTTATAAATAAATGCAGAAATGAAAAA,"9.47 ln median PBM intensity, better of two orientations",
CACACA_negctrl_site1096 (dsDNA) DNA 1: ATTATATTCTTTACTACCAATTAGTAGAAAATAAAA DNA 2: TTTTATTTTCTACTAATTGGTAGTAAAGAATATAAT,"9.31 ln median PBM intensity, better of two orientations","8.9 ln median PBM intensity, better of two orientations"
CACACA_negctrl_site1828 (dsDNA) DNA 1: ATCTCAAATATAATAAATTATTAGGTATATATATAT DNA 2: ATATATATATACCTAATAATTTATTATATTTGAGAT,"9.46 ln median PBM intensity, better of two orientations",
CACACA_negctrl_site844 (dsDNA) DNA 1: AATATCATCCTTTTTTTTTATAAAATTTAAAATATA DNA 2: TATATTTTAAATTTTATAAAAAAAAAGGATGATATT,"9.5 ln median PBM intensity, better of two orientations",
CACACA_negctrl_site398 (dsDNA) DNA 1: TATTTATTTATTTATTTATTTATTTATTTATATTTA DNA 2: TAAATATAAATAAATAAATAAATAAATAAATAAATA,"9.48 ln median PBM intensity, better of two orientations",
CACACA_negctrl_site1260 (dsDNA) DNA 1: TAAATCATTTCATGGCATTTACACAAAATTTTTTAA DNA 2: TTAAAAAATTTTGTGTAAATGCCATGAAATGATTTA,"9.48 ln median PBM intensity, better of two orientations",
CACACA_negctrl_site217 (dsDNA) DNA 1: TAATTTCATCATATTTGTTCCTTCTCAAAATTTTTT DNA 2: AAAAAATTTTGAGAAGGAACAAATATGATGAAATTA,"9.48 ln median PBM intensity, better of two orientations",
CACACA_negctrl_site660 (dsDNA) DNA 1: TTTTCTTAATATTTCGTTTTACATAAACCTTTTAAA DNA 2: TTTAAAAGGTTTATGTAAAACGAAATATTAAGAAAA,"9.51 ln median PBM intensity, better of two orientations",
CACACA_negctrl_site1139 (dsDNA) DNA 1: ATTTTTTTTTTTTTTATTCCCCTTTCGAAAAAAACC DNA 2: GGTTTTTTTCGAAAGGGGAATAAAAAAAAAAAAAAT,"9.47 ln median PBM intensity, better of two orientations","9.05 ln median PBM intensity, better of two orientations"
CACACA_negctrl_site1 (dsDNA) DNA 1: TTTTTTATTGTGATACGTATATTATTTTTTGATAAA DNA 2: TTTATCAAAAAATAATATACGTATCACAATAAAAAA,"9.51 ln median PBM intensity, better of two orientations",
CACACA_negctrl_site1411 (dsDNA) DNA 1: AATTAAAGGAATTACAACTTTGCAAGCGCAACATAA DNA 2: TTATGTTGCGCTTGCAAAGTTGTAATTCCTTTAATT,"9.47 ln median PBM intensity, better of two orientations",
CACACA_negctrl_site1286 (dsDNA) DNA 1: TTGTATTCCTTTTACAACTACCATGAAGAGAATTTT DNA 2: AAAATTCTCTTCATGGTAGTTGTAAAAGGAATACAA,"9.49 ln median PBM intensity, better of two orientations",
CACACA_negctrl_site1564 (dsDNA) DNA 1: AAAATGTCCCGTAGAAAATAAATTTATTACGCAATA DNA 2: TATTGCGTAATAAATTTATTTTCTACGGGACATTTT,"9.41 ln median PBM intensity, better of two orientations","9.06 ln median PBM intensity, better of two orientations"
CACACA_negctrl_site215 (dsDNA) DNA 1: ATAAAATATTATATATATATATATATATATATATAT DNA 2: ATATATATATATATATATATATATATAATATTTTAT,"9.5 ln median PBM intensity, better of two orientations",

# From article PMC11417369, “DNA sequence and chromatin differentiate sequence-specific transcription factor binding in the human malaria parasite Plasmodium falciparum”
